Source: article PMC10304930

Tests used:
[1] = biological target: authentic main protease (M^pro) from SARS-CoV, without tag (SARS-CoV) (UniProt P0C6X7); test: SEC; […]; 40 mM Tris-HCl, 100 mM NaCl, 1 mM DTT, pH 8.0; 0.5 mL/min; […]
[2] = biological target: authentic main protease (M^pro) from SARS-CoV, without tag (SARS-CoV) (UniProt P0C6X7)
[3] = biological target: tagged main protease from SARS-CoV with 34 extra amino acids at the N-terminus (SARS-CoV) (UniProt P0C6X7)

Substance | stoichiometry N [1] | kcat/Km, FRET-based cleavage assay (Dabcyl/Edans peptide substrate) [2] [M⁻¹ s⁻¹] | kcat/Km, FRET-based cleavage assay (Dabcyl/Edans peptide substrate) [3] [M⁻¹ s⁻¹]
authentic main protease (M^pro) from SARS-CoV, without tag (from UniProt P0C6X7) (enzyme) | 2 | 2790 | 
tagged main protease from SARS-CoV with 34 extra amino acids at the N-terminus (from UniProt P0C6X7) (enzyme) |  |  | 17
